The supplement of paper PMC10567573
± gives the standard deviation.

Experiment: protein stability index of a GFP-peptide fusion (GPS, HEK-293T) (PSI 1-6); higher = more stable
[1] = treatment: DMSO, c terminus: a fixed tail appended
[2] = treatment: MLN4924 1 uM, 8 h, c terminus: a fixed tail appended
[3] = treatment: DMSO, c terminus: native
[4] = treatment: MLN4924 1 uM, 8 h, c terminus: native
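Also: 24-mer peptide tiles fused after GFP, lentivirally expressed, FACS-sorted into six equal bins by GFP/DsRed ratio, decoded by Illumina sequencing, PSI is the read-weighted mean bin number.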

Sequence | protein stability index [1] | protein stability index [2] | protein stability index [3] | protein stability index [4]
NIHQLQNRLSELEVANKDLTERKY [SASS6] | 3.42 ± 0.15 | 3.62 ± 0.34 |  | 
HVTLTLPPTQLEVNLEEIPGEGLL [C2CD2L] | 4.07 ± 0.18 | 3.96 ± 0.42 |  | 
GKIDFPRHLDFHVKDLIKKLLVVD [PRKX] | 2.44 ± 0.48 | 1.97 ± 0.078 |  | 
KPKTTNIELQGVPNDEVHPLLGVK [RBBP5] | 4.65 ± 0.7 | 4.75 ± 0.34 |  | 
LMKKIGQCPMRVQKEVAGFVLNRL [CRYL1] | 2.34 ± 0.38 | 2.53 ± 0.24 |  | 
LLTITKAHSNAISNCCFTFSGHFL [WDR88] | 3.12 ± 1.1 | 2.59 ± 0.48 |  | 
VNPQDGTNTLTRIAENGVSERDSE [EHMT1] | 5.56 ± 0.22 | 5.51 ± 0.11 |  | 
YNQQQALIDQRYFQVLCSINSIIH [CEP70] | 2.32 ± 0.34 | 2.24 ± 0.23 |  | 
VQVLTMGNDTSPSEGTNLNAPNSL [HNF4A] | 3.97 ± 0.17 | 4.02 ± 0.18 |  | 
AIETAMEDLKGHVAETSGETIQGF [TPRG1] | 4.82 ± 0.26 | 5.03 ± 0.3 |  | 
ELDILPIHPPSGNSDLDPDAQNPM [BTBD10] | 5.45 ± 0.16 | 5.38 ± 0.16 |  | 
TSSSSSSSRQTRPILKEQSSSSFS [KRT16] | 4.66 ± 0.14 | 4.61 ± 0.11 |  | 
LSELPPLEDMGQPPAEEAEQPGAL [FKBP8] | 5.59 ± 0.18 | 5.72 ± 0.24 |  | 
MERARDRLHLRRTTEQHVPEVEVQ [SNURF] | 4.77 ± 0.2 | 4.72 ± 0.06 |  | 
DNWIPLLWCANILGYAVSTFAMVK [DHCR7] | 3.04 ± 0.44 | 3.17 ± 0.12 |  | 
CGLLPISPEALSLGEVAYHDYHGI [ADD1] | 2.18 ± 0.24 | 2.35 ± 0.41 |  | 
PPALQNNLLSPLLTGTESPFDLEQ [NFE2L1] | 4.97 ± 0.29 | 5.04 ± 0.1 |  | 
YPSYKVREKIETVKYPTYPEAEK [FUT8] |  |  | 4.07 ± 0.19 | 4.16 ± 0.57
SYYNSPGLHVQHMGTSHGITRPSP [CCDC6] | 3.2 ± 0.29 | 3.24 ± 0.39 |  | 
IPAVLTVSMLGYPFILPDMVGGNA [MYORG] | 2.87 ± 0.51 | 2.63 ± 0.38 |  | 
YDGMLSDVQSMPKTGILILILSII [MAGEA10] | 2.36 ± 0.78 | 2.12 ± 0.48 |  | 
FHYVDILALLPAAWEDSHGSQDGH [SCNN1D] | 2.26 ± 0.56 | 2.13 ± 0.25 |  | 
RGEAEAFAIGARARAEAEQMAKKA [FLOT1] | 5.33 ± 0.27 | 5.17 ± 0.26 |  | 

Sequence | protein stability index [1] | protein stability index [2] | protein stability index [3] | protein stability index [4]
MQQFLQKALEILRKDFSELRSAGV [FAM50A] | 3.67 ± 0.41 | 3.03 ± 0.25 |  | 
MLSHDNITWIAGAVTKDFKLTDKH [ACSBG2] | 2.66 ± 0.42 | 2.86 ± 0.3 |  | 
ANAAKHTQDSARVNPQDGTNTLTR [EHMT1] | 5.13 ± 0.18 | 5.19 ± 0.14 |  | 
KECVSILPRKESPSVRSSKDGKLL [TNFSF13B] | 4.53 ± 0.11 | 4.56 ± 0.091 |  | 
LTEIYRIVSQKQIADRAAHDESPG [RAB11B] | 3.52 ± 0.12 | 3.52 ± 0.27 |  | 
AFYRLADLFGWSQLIYNHITTRVN [ADD1] | 3.25 ± 0.54 | 2.88 ± 0.35 |  | 
TMGMGMPNIAMTSGTVQPKQDAFA [CLINT1] | 3.9 ± 0.17 | 3.98 ± 0.21 |  | 
DPLPAAAVGAAAEAEADEEADPPA [SNX8] | 5.59 ± 0.3 | 5.71 ± 0.14 |  | 
PSLSPGSSCVKYLIFLSNFPFSLL [TSPAN10] | 2.8 ± 0.85 | 2.83 ± 0.6 |  | 
GEKPFECNECGKAFRWGAHLVQHQ [ZNF232] | 2.58 ± 0.52 | 2.62 ± 0.82 |  | 
LVGDSDVGKGEILASLQDGAAESP [RAB40B] | 5.18 ± 0.17 | 5.36 ± 0.32 |  | 
QSWMWRGLTFLLPFLFFGHFWQLF [TMEM120A] | 2.66 ± 1.1 | 2.79 ± 0.25 |  | 
LPSSGEGLAFFTFPNIASATKFKQ [HMOX1] | 2.75 ± 0.43 | 2.87 ± 0.18 |  | 
EFLTNELSRKLMQLQHEKAELEQH [CCDC6] | 2.98 ± 0.16 | 3.05 ± 0.3 |  | 
QEILHRDLKLGNFFINEAMELKVG [PLK2] | 2.58 ± 0.25 | 2.76 ± 0.31 |  | 
QPSQQQQPPPQEEPGTPSSSPDDK [KLHL14] | 5.6 ± 0.26 | 5.59 ± 0.15 |  | 
APLQSVFQGQKTELNNCISMLVAG [TRIM63] | 2.85 ± 0.19 | 2.88 ± 0.22 |  | 
PLDMFSEEIKFYELGEEAMEKFRE [KCNA1] | 4.71 ± 0.31 | 4.85 ± 0.12 |  | 
SRVKCDQYWPSRGTETHGLVQVTL [PTPRD] | 2.42 ± 0.39 | 2.05 ± 0.4 |  | 
HEGKTDSERTDTAADGETTATEEL [EPB41L3] | 5.65 ± 0.34 | 5.51 ± 0.21 |  | 
QNNENNISCVERGWSTPPKCRSTI [CFHR2] | 3.97 ± 0.29 | 4.11 ± 0.34 |  | 
PTPKCLRLCFFPFVENGHSESSGQ [CFHR2] | 2.54 ± 0.093 | 2.72 ± 0.24 |  | 
WAVVTMTTVGYGDMKPITVGGKIV [KCNA4] | 2.84 ± 0.38 | 2.72 ± 0.55 |  | 

Sequence | protein stability index [1] | protein stability index [2] | protein stability index [3] | protein stability index [4]
LSEALKEATKEVHTQAENAEFMRN [HMOX1] | 4.92 ± 0.1 | 5.01 ± 0.48 |  | 
VGSVHVDSGASAITRESHTHRDRP [CSNK1G1] | 4.85 ± 0.25 | 4.66 ± 0.32 |  | 
WTLYKILDSCKQLTLAQGAGEEDP [SMG5] | 2.32 ± 0.18 | 2.56 ± 0.28 |  | 
GHEYAAKIINTKKLSARDHQKLER [CAMK2B] | 4.09 ± 0.24 | 4.32 ± 0.19 |  | 
KKVLNLLKGAFPARLKKVLIVGAP [PTPN9] | 2.81 ± 0.83 | 2.99 ± 0.43 |  | 
ERAAAQARRELQAEREALQARLRD [ZBED3] | 5.27 ± 0.21 | 5.33 ± 0.22 |  | 
AMEVNTSASEILYSAPPGDPLSTN [NFE2L1] | 4.45 ± 0.27 | 4.55 ± 0.23 |  | 
EFQMFPKSRLSSVSVTYCSVSQDF [ETS2] | 2.23 ± 0.25 | 2.15 ± 0.21 |  | 
DDHGDECSYTDLLPQDEGGGGYSS [KCNA4] | 5.52 ± 0.22 | 5.62 ± 0.082 |  | 
LFGHPGLDMELGPSQGQETNEVCE [ADAMTSL2] |  | 5.29 ± 0.35 |  | 
LSVIQMVAFLEQRASALLASCSKN [FBXO34] | 2.81 ± 0.35 | 2.71 ± 0.71 |  | 
MSKLGKFFKGGGSSKSRAAPSPQE [CHMP4C] | 3.56 ± 0.33 | 3.76 ± 0.38 |  | 
DSYSSTQHVPEELDLSSSSQMSPL [ATF6] | 5.29 ± 0.12 | 5.28 ± 0.073 |  | 
PGPQGSAGQRGEPGPKGDPGEKSH [EMID1] | 5.62 ± 0.4 | 5.49 ± 0.26 |  | 
KDVMEKREDSKEAEKSGEATDGAR [CHGA] | 5.79 ± 0.11 | 5.68 ± 0.37 |  | 
LLECYIQYHHSKIRNRGYNLIYRS [TMEM192] | 2.71 ± 0.5 | 2.73 ± 0.6 |  | 
RPSEIKDYSPYFKTIEDLRNKIIA [KRT16] | 2.28 ± 0.18 | 2.41 ± 0.22 |  | 
PRNKTENGLTPKKKIQVNSKPSIQ [ATF6] | 4.24 ± 0.31 | 3.96 ± 0.17 |  | 
KFKGWVSYSTSEQAELSYKKVSEG [DLC1] | 3.52 ± 0.22 | 3.54 ± 0.39 |  | 
YDGRSRLSSVECLDYTADEDGVWY [KLHL12] | 3.55 ± 0.4 | 3.76 ± 0.35 |  | 
GVWAPPAPGFGEDVPNRLVDNIDM [BEX5] | 4.52 ± 0.57 | 4.25 ± 0.55 |  | 
YYPRVQHYRELLDSLPMDAYTHGC [GDAP1] | 2.21 ± 0.17 | 2.32 ± 0.23 |  | 
ELSTLRNLFKQLPEPLLASSGHC [CEBPB] |  |  | 2.12 ± 0.44 | 2.38 ± 0.14

Sequence | protein stability index [1] | protein stability index [2] | protein stability index [3] | protein stability index [4]
PTRNDLESGLGHFSLRVHTGCHKK | 4.06 ± 0.18 | 4.11 ± 0.18 |  | 
ACDELFSYLIEKVKRKKNVLRLCC [PRAME] | 2.99 ± 0.43 | 2.7 ± 0.61 |  | 
TLDSYEDKQKLKRTEIISRSWFPS [YJU2B] | 3.14 ± 0.12 | 3.24 ± 0.29 |  | 
SAAPSNDQDGEYCPEVKLKTTGLE [SRPK2] | 5.28 ± 0.28 | 5.26 ± 0.26 |  | 
SAEELRKARSNSTLSKSEYMVIEE [KCNA3] | 4.87 ± 0.17 | 4.93 ± 0.16 |  | 
EHICVNNGNSYICKCSEGFVLAED [MATN2] | 4.61 ± 0.15 | 4.26 ± 0.53 |  | 
LMELDMAMEPDRKAAVSHWQQQSY [CTNNB1] | 3.11 ± 0.19 | 3.33 ± 0.37 |  | 
YSDRTNIISKPVPQTLIMAYDYAK [FEM1C] | 2.36 ± 0.24 | 2.49 ± 0.41 |  | 
RCRLSLDDRVLSSLVRDTIARVHG [POP5] | 2.29 ± 0.25 | 2.35 ± 0.27 |  | 
IDYYESKIRKIHTQRQYKEDESQS [CEP70] | 4.08 ± 0.084 | 4.2 ± 0.1 |  | 
SQSFSLYVKYQVAIHQDPPDECGK [ATE1] | 2.75 ± 0.37 | 2.5 ± 0.35 |  | 
TVAGKHQDLKYISPEIMASVLNGK [CDC25A] | 3.17 ± 0.2 | 3.3 ± 0.32 |  | 
LASTSKPVVKLLHNRSNNKYSYTS [KCTD13] | 3.08 ± 0.2 | 3.27 ± 0.28 |  | 
GLNDALDNLRKVVPCYSKTQKLSK [NEUROD6] | 3.25 ± 0.15 | 3.42 ± 0.18 |  | 
LEELIDMAVLEEIQQELIKQEQSI [RPAIN] | 3.34 ± 0.31 | 3.44 ± 0.3 |  | 
AEKLCIYTDNSIRPEELLQMELLL [CCND1] | 2.28 ± 0.078 | 2.09 ± 0.36 |  | 
PGDPKWLDVIERDLHRQFPFHEMF [TBC1D10A] | 2.46 ± 0.31 | 2.57 ± 0.41 |  | 
MEEASEGGGNDRVRNLQSEVEGVK [VAMP8] | 5.49 ± 0.19 | 5.38 ± 0.16 |  | 
LVVPNKGYSSLDQSPDEKPLVALD [FAM219A] | 4.45 ± 0.17 | 4.42 ± 0.25 |  | 
LPEWISCLIQKAQWTVGKLNCPFC [RNF180] | 2.22 ± 0.19 | 2.31 ± 0.087 |  | 
